Test results reported in publication doi:10.1101/2023.07.03.547593 (bioRxiv, 2023).
Residue numbers refer to the chain shown, from its start. Names and notes keep the numbering of the source.

B1: nuclease-deactivated AsCas12f1 variant (D225A) (enzyme)
chain: MIKVYRYEIVKPLDLDWKEFGTILRQLQQETRFALNKATQLAWEWMGFSSDYKDNHGEYPKSKDILGYTNVHGYAYHTIKTKAYRLNSGNLSQTIKRATDRFKAYQKEILRGDMSIPSYKRDIPLDLIKENISVNRMNHGDYIASLSLLSNPAKQEMNVKRKISVIIIVRGAGKTIMDRILSGEYQVSASQIIHDDRKNKWYLNISYDFEPQTRVLDLNKIMGIALGVAVAVYMAFQHTPARYKLEGGEIENFRRQVESRRISMLRQGKYAGGARGGHGRDKRIKPIEQLRDKIANFRDTTNHRYSRYIVDMAIKEGCGTIQMEDLTNIRDIGSRFLQNWTYYDLQQKIIYKAEEAGIKVIKIDPQYTSQRCSECGNIDSGNRIGQAIFKCRACGYEANADYNAARNIAIPNIDKIIAESIK
B2: Acidibacillus sulfuroxidans Cas12f1, wild type (enzyme)
chain: B1 chain with A225D

Experiments:
[1] = molecular target: the molecule itself; assay: cryo-EM structure
[2] = molecular target: the molecule itself; assay: SEC

Row | Protein | binding result [1] | stoichiometry N [2]
1 | B1 | binds | 
2 | B2 |  | 2
